Experiment: soluble on expression in E. coli; label from the status in PepcDB or PDB records

Sequence | soluble on expression in E. coli
MGLTTMGLTTMGLTTKGLTTMGLTTKGLTTKGLTTMGLTTKGFTTKGLTTMGVTTKGLTTMGLTTKGLTTKGLTTKGFTTKGLTTMGLATMGLTTKGLTTMGLTTMGLTTKGLTTKGLTTKGLTTKGLTTKGLTTMGLTTKGFTTKGLTTMGLTTMGLATMGLTTKGLTTMGLTTKGFITKGLTTMGLATMGLTTMGLTTKGLTTKGLTTKGLTTMGLTTKGFITKGLTTMGLATMGLTTMGLTTKGLTTMGLTTMGLTTKGLTTKGLTTKGLTTKGLTTKGLTTMGLTTKGFTTKGLTTMGLATMGLATMGLTTMGLTTKGLTTKGLTTKGLTTKGLTTMGLTTKGFTTKGLTTMGLTTMGLTTKGLTTKGLTTKGLTTKGLTTMGLTTKGFTTKGLTTMGLATMGLTTKGLTTMGLTTKGFITKGLTTMGLATMGLTTMGLTTKGLTTKGLTTKGLTTMGLTTMGLTTMGLTTMGLTTMGLTTMGLTTMGLTTKGLTSQGVMDQAGVNRVEGEPINRLRTCEGKGNGRGDMQGVGNLGKALRGREDSLIVSSETRGFPRMGLWPGFPPIEYQGQVQSLE | not soluble
MMNIFILEDDFIQQTRIESIVVGILKETRIPCNQLEVFSTPQKLFESIQERGDHQLYFLDIEIGEYTRCGLELAAAIRQKDPNAVIVFVTTHSEFAPISFKYKVSALDFIDKAGGQKQFKEQIEECIRYTYDMMSSRESKDMFLFETPQTRLKLPYKDILYFATATTPHKVCLWTQTERLEFYGNLSEIQAVAPKLFLCHRSYLVNLDKVVRIDKSKQLLYFENGDSCMVSRLKMKCLFERWEALR | not soluble
MAAPAQQTTQPGGGKRKGKAQYVLAKRARRCDAGGPRQLEPGLQGILITCNMNERKCVEEAYSLLNEYGDDMYGPEKFTDKDQQPSGSEGEDDDAEAALKKEVGDIKASTEMRLRRFQSVESGANNVVFIRTLGIEPEKLVHHILQDMYKTKKKKTRVILRMLPISGTCKAFLEDMKKYAETFLEPWFKAPNKGTFQIVYKSRNNSHVNREEVIRELAGIVCTLNSENKVDLTNPQYTVVVEIIKAVCCLSVVKDYMLFRKYNLQEVVKSPKDPSQLNSKQGNGKEAKLESADKSDQNNTAEGKNNQQVPENTEELGQTKPTSNPQVVNEGGAKPELASQATEGSKSNENDFS | not soluble
MAHHHHHHMACDFELPLFAAPCSEVLSTQMSVVDGKMAEKSDKAKRTARASACMIRKGFFSHFPQAILTSPESGIKTAPHPWSNASLMMAADAFSVGLMLRLRLFSIICRNPSPKPTAAGGRFAGYVFCTIPRLSADNCRRTALLKKSWSYKRMPKMAAKYKKRDAVTSISAMVKELSAGMARTDRRNFSLRDTVW | not soluble
ADPVMLEIFNNRFMSVAEQMGYTLQNTAHSVNIKERLDFSCAIFDGKGNLIANAPHIPVHLGSMGECVKYLIRARSVEMTAGDVYLINSPYHGGTHLPDLTVVTPMSGNLGEILFYLASRGHHADVGGVTPGSMPPDSRTIEEEGVLSEGMKIVEQGRFLEEKLRLWLGSGKYPARNPDQNVADIRAQVAANEKGLQELHRMVEEFSLETVEAYMGHVQDNAEEAVRRVIDRLEDGEFTYPLDDGNAIKVKVKIDRENRNAKIDFSGTSSQLPSNFNAPASVCLAAVLYAFRTLVKSDIPLNAGCLRPLEIIIPEGSMLKPEPPASVVAGNVETSQYIVDAIFGALGSLAASQGTMNNFTFGNADFQYYETICGGSGAGPGFSGTDAVHTHMTNSRITDPEVLETRFPVLLEEFSIRQGSGGEGEFRGGNGVVRKFRFLKDMDAAILSSHRKFPPFGLKGGMPGKCGKNTLIRRDGSVIEAGGKAELKLKSEDVFVIETPGGGGYGRPENFRPEK | not soluble
MGSDKIHHHHHHMILSVSRRTDIPAFYSEWFFNRLKEGFVYVINPFNERKVSKVELNKETVDLFVFWTKDAEPMLKRLDELNEFKYYFQFTITSYRNDVERMTRKKKDIIDTFRILSKKIGKEKIIWRYDPIFLNDFYTKEYHYRWFERFCDKLEGYTDKCIISFLDLYKKTEINTRCLNIHKMDEKSMRQVAKQLSIIANKHNIIIETCSEGIDLSDYGIKKGSCIDKNLISKIIDFGVELKKDNNQRELCGCVKSVDIGQYNTCKHHCLYCYANFNEKLLNDSILKYNPKAPTLAYTLKGDEKITVREMESIKGNKQKQLDLFKNIKQGE | not soluble
MGSDKIHHHHHHMTSADPPTLPETSVDVPPTSAEGLLKLITNEYDGLPRQLKRIASYMSQQSDRIMVDRISDIARECEVHPSAIVRFSQRFGFSGFSEMQTLFREAYTHKTTPVQNYQQRIRSMIVNKSQKASAGDLARECVNATLSGLERLSADLDDEEFEKAVDLVVNADNIYVVGVRRSFAVADYLVYNLQHTNKRIHLISGLGGSYREQMRSVRANDLVIAISFTPYGKETQHCLRIAQHHQAKTLIITDSNLSPLAKRANSVLLVNEGSSFAFRSLSATLCLCQALFIAVAYRLELKVDEIHEQVGFDD | not soluble
MAIDFNAMPPSTWAENLARNQLSKLQTQLDTQTKSAKARTDALSQLQKALQDYKSSLATLTGKKSLVAMNAAATPDGMASVTAKGNAAAGNYSVFVEQLASSQQ | not soluble
MRKGNTDLLLFFNGWGMDRRVADWLVSAWPDSAGRDIAVLYDYRNLSIPAWLGEVMAEARAVDLVAWSLGVWAAVNSELEKIDRAVAINGTATPLDAERGIPPEIFAGTLKSWNDANRKRFERRMTGGVPPKIVDATRSDRTSADQQAELLSLGEAVARFPAESTASWKFSKALIGGRDLIFSAENQRRAWSEAGVRVAEIAAMPHFPFTHIAGWGELFT | not soluble
MGSDKIHHHHHHMSRFFRHYQAFHAIIETGTVTGAAERLGVSQPAISNLLAQLERRTRLKLFERNRGRLLPTPEAMVLFDEIDTVIRGLGQVSQAVVDLQNQKAGQLQVATNHAMAFGFMPEQIARFAADKPNLTVAFQSQYSAKIQDWVMAGLFEIGICEQPVRTDGLDWVPFFFEIQCAVPADSPLARHEELTPILLDDVPFIVMGADHMVTRRAREAFHREGANLRIRCQTDLFRNALNLVKQGLGVTLVDPFTLSSDDRSGYVLRRFAPRILLDVIIVTARGRPISAIGAQFLEQVSASMTTLATAAPDPAEP | not soluble
MSLSNQLLLGMSEFGLSYIINFSEFNQHVLVPATTGSGKTTLLQLLVQHAVKFNFPVILIDGKGARDTLESMREIAKFYDKEVHAFTDDGDMRYNPVEHGNDISIRDKLVSLAETESVFYSGAAKALLQVTIQLLDEFKGAKVTLSGDTRTTETVERSLPFVQRFLLPRNVLHLFADAILPNNPKLFEIEVEKKIQKPKKKSVKEGSEILPDSDLDKEEKEEDSQIKNSKFRNISQLGIAQKETETIVLNPETLDLDSYYLLLKRNLRYLPTDKETGENIKQKLFERLFIRYEHKDSPFYLYATSEALQTNINMLLDSELGKLFDTKNAKNVLDVQEIVNQRKLVYVSFNGLIYKEYIRTLAQMLVGDVNYFASEMYRKNVKREVLVIFDEPASYLNETFIDMVNKGRGAGVYGIFTPQTMADIAKLGDKLMEQLVGNVNTLFIGKTNEKGEAEYWSETMGTYQDIDVTSVTEQEDGYSDVGKSDWSGDRGTKRNVDRFKISPNKIKELRTGEFIIYRTAENVNLPPQKVYVRNALEWLQKSNSEGHHHHHH | soluble
MGGAVEVSATINNVGNYNAEEVVQLYIRDIVGNVTRPIKELKGFQRITLGKGESMVVTFKLHTDELAFYNQQMEYKPEAGLFHVWIGGDSSTTLKTEFEVTDLEHHHHHH | not soluble
MLREIPTHLIGGPLGAGKTSLIRSLLAQKPAGERWAVLVNEFGEIGLDAALLATDVDGVAIGEVAGGCLCCVNGVPFQVGLGRLLRRARPDRLFIEPSGLGHPQALWKQLQAPPWSGVLALQPLVVVLDAAALASGQPLPEAQEQALEAAGMLLLNKSETLDATQRCAVRARLPVLPLRWSVRGHLALRDLPTSVAGEGSATTWAALPEAPAQLGTVLLAERPLRAVREQDGQFAIGWRRRCVSIGPQWTPGLEHHHHHH | not soluble
MGSDKIHHHHHHMSQERTDGDLRNTGLSLKHDREWDYELDRIVEAVEERDAEKVGLQFPEGLKRRGPAVADDLREELPDDVTVLLSGQPCYGACDLDTYMMRRTDVFVHFGHSPMKESDKIIYVPLFSNVDVFPIMEQAREEQLADPEDDPDVGLVTTAQHMNKFDEMREWLEERGYTVHTRRGDERLTHEGQVLGCNYASADVDADQMLYVGGGKFHPLGLAMEHPEKHVVIADPVNNVVTVADTEKFMKQRYGAVHRAMDAESWGVIFCTKIGQGRWDQAEEIVENNENAYLITMDEVTPDRLTNFGMDAYVNTGCPRITTDDGPQFKKPMLTPGEYEIAIGEKPLDSLEFDTFHGTW | not soluble
MGHHHHHHGGHMSLHSGSVEHCIKGRSRRAAPRSEHTGRMADIARKASAHWEGDLKSGNGTITTESGVLSQAQYSFKTRFENGKGTNPEELLASAHAGCFTMQLSALLAEHGHEIKALDTDATCEMVKDGPGFKINHMHLRVRAQLTGSDQADFEAHVKDAAEKCPLSRIMQGNVEVTHEAILEGEGGS | soluble
MNLRNGWNIEFQKNIHMYCHRLIATKGDKHYEVPCEDTPAGFVGIWLYGLELDEMTLSDLQAGLVEWAESSGCTYRIYNTRGVYLTNEPHVQADA | not soluble
SHMTDDKKKGKFIVFEGLDRSGKSTQSKLLVEYLKNNNVEVKHLYFPNRETGIGQIISKYLKMENSMSNETIHLLFSANRWEHMNEIKSLLLKGIWVVCDRYAYSGVAYSSGALNLNKTWCMNPDQGLIKPDVVFYLNVPPNYAQNRSDYGEEIYEKVETQKKIYETYKHFAHEDYWINIDATRKIEDIHNDIVKEVTKIKVEPEEFNFLWS | soluble
MSLAKPIEAHTVSPVNPNAQQTTKTVMNWLAHLPNRTENRVLSGAFGGYSHDTFSMAEADRIRSATGQSPAIYGCDYARGWLETANIEDSIDVSCNGDLMSYWKNGGIPQISLHLANPAFQSGHFKTPITNDQYKKILDSSTVEGKRLNAMLSKIADGLQELENQGVPVLFRPLHEMNGEWFWWGLTSYNQKDNERISLYKQLYKKIYHYMTDTRGLDHLIWVYSPDANRDFKTDFYPGASYVDIVGLDAYFQDAYSINGYDQLTALNKPFAFTEVGPQTANGSFDYSLFINAIKQKYPKTIYFLAWNDEWSAAVNKGASALYHDSWTLNKGEIWNGDSLTPIVEEGHHHHHH | soluble
MAHHHHHHMPVPVLLDNYAYFILSCKTKRCAVVDPADPTLVLNMLEVVRNLTQIDFMITDILTTHKHWDHAGGNMEMRALSQCSSERCRALLSPELNIYGSEVDRPHACNKLIKGSDELVVAGGGAKVVVLSTPGHTGGSVMFLVGDALPKEGEPQRLALFTGDCVFCGGCGALFEATSVDETLETVDIFNNNRTWVHPATGDIIHTDDVLIYVGHEYTERSLDMILSVQRTANQTGEQSAIATSNYCDTVAQARNGARRLRSCVVADDVYMKVTSMETKAPLHLRACTVPSTVTIEKKVNALLSLKRCVLEEFQGKPYASMAVQRAIYTSTKRNDTG | not soluble
MRPSSRSAGRRTSMRLTTRDFDRTGRPLRFTELGFGSSPLGNLYRAISEEEAQALLERAWAGGIRYFDTAPLYGYGLAEERLGRFLAGHPRSDYVLSTKVGRLLRPVEPGEARDGLGKFFEVPERKERFDYGYDGVMRSLEASLDRLGLDRVDVLYAHDLDLFTHGSQEALEARLAEFMAGGYRALVELRDQGVISAFGAGVNEWQPCQWLAERGEFDLFLLAGRYTLLEQEALESFLPLAEERGIGIVIGGPYNSGVLATGPKPGSFYDYRLAPQAVLDRVAQIHTICERWGVRMFEAAFQFPLRHPAVLSVIPGPQSVGEVMENRIAADAELPPGLWEDLKVAGLLRPDAPV | not soluble
MSERIASVERTTSETHISCTIDLDHIPGVTEQKINVSTGIGFLDHMFTALAKHGGMSLQLQCKGDLHIDDHHTAEDCALALGEAFKKALGERKGIKRYGYAYAPLDESLSRAVIDISSRPYFMCHLPFTREKVGDLSTEMVSHLLQSFAFAAGVTLHIDSIRGENNHHIAESAFKALALAIRMAISRTGGDDVPSTKGVLAL | soluble
